A protein production outcome set (Wang et al. 2014)

Experiment: label from the status in PepcDB records
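Further: failed if final PepcDB status was selected cloned or expressed and not failed if soluble or beyond.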

Row | Sequence | protein production
1 | MIQAQTAAPPHAKVTAILLFTTLMWGGSFLFNKIGMREVPPVHFFFFRFALAALLMGGVCLPRLARLNRHIAVRGAVVGLALAAVNLTFVLGVSGTTISRAGYLNNLFVLFIPLLTFALWRERVDRVTFGGIALAVVGLWALASGGAEGFNQGDLLSTVCALFIAIHIIAVSRVLRDEDVYLVTFVQFVTVAAVGLVLCLVLPWPEFTIGRAGAWSLAYCALFPTVICFTLQNAYQRFTTPTRAGLIYTLDPVWSMLFGVFILGERLTPRELAGCVLILMAVAGPLLARLYLEQRHRRLYRLDGAEGT | failed
2 | MLFWGSAFNAMSYVIQYMPPLSAAAERFTIASLGLFILFAAIGKLRWAALRQNLAIYLIIGIIGIAGFNLGCFYGLQTTSAVNGALIMATTPLITLLLTILLDGEKLTLNKSIGVVFGLSGVLFVISHGHISTLLHLKIAIGDLFILLGGVSFCLANMLSRRYVKNATPLETTTFSMMSGALTLIILSVIFEHPSQAIAMAPITAHLAMGYVIICSTMIAYLFWFNGIQKLGAGRASIFFNFVPVFSMLVALLAGQSLNIWQLIGTALVMLGVMSSGGFIQIKRPTLIAKPCTK | failed
3 | MITRNAPRHALLGLILAGSLGTFVALPAVADNAAPAEQGQTTPALGSNLQTLKELDGKAPARRALNIQTWNTAEGARVLFVESRELPMFDMRLTFAAGSSQDQKSPGIALLTNAMLNEGVKGKDVNAIAQGFEGLGADFSNGSYRDMAVTSLRSLSAADKRDPALKLFSEVVGKPTFPADSLARIKNQLIASFKTQKQNPGAIASKELFNHLYGDHPYAHPSEGDAKSINAITLAQLKAFHAKGYAAGNAVIALVGDLSRDEAQAVAAQVSASLPKGPALAKVADPVEPKAGTTHIEFASNQTHLMLAQLGIDRNDPDYAALTVGNSVLGGGGFGSRLMTEVREKRGLTYGVSSGFTAMQVAGPFMIGLQTRAEMSENTLKLVQDIVRDFLANGPTQKEIDDVKRELTGSFPLTAASNSAIVGQLGAIGFYNLPLTYLEDYMAAAQSVTVEQVKAAMSKHLSADKMVIVTVGPTVEQKPLPAPTDKPTRQPVGVPEH | failed
4 | MQSKGATGSKSEQRTGLLNGVAAYGMWGLVPLYWPLLKPAGAVEILAHRMVWSLALVAVALLVMRRWAWAGELLRQPRKLALVTVAAAVITVNWGVYIWAVNAGHVVEASLGYFINPLVTIALGVLILKERMRPWQWAAVGVAFTAVVVLTVGYGQPPWISLCLAFSFGTYGLVKKKVNLGGIESLAAETAIQFLPALAYLLWLTASGGSTFGTQGGAGHAALLASTGVVTAIPLVCFGAAAIRVPLSTLGLLQYLAPVFQFLLGILYFHEAMPPERWAGFALVWLALSLLTWDALRAAHRASRALRTAPSRIVADEQITPVYEHP | failed
5 | MTMTLSAKDLENISKLAYLNEDSEHSAKLTQEVSAIMDFVDQLKTIDTSQIAPLFHPLALNQRLRPDEVTEAECLAELEAMAPLFEDNLYLVPKVISSDK | failed
6 | MKYIVAVNASPRSGWNTSQLVEAAAKGAKEAGATVDIIDLYKLEPFQGCISCFGCKLPRTFGRCVSKDGLSEVLDKIRKADGLILGSPNYLGNLTAGFRALYERLIFQSLTYNKERPNCNEHMIPVLLITTSNCDESIYDKIGYTSMLEGYKQMLERFVGPLEHHHHHH | failed
7 | MGQPVASKGRGATPTVGKAMLNKYARAFFTRVLTPFAAFLIRRGVSPDTVTLLGTAGVVAGALVFYPMGEFFWGTVVITLFVFSDLVDGNMARQLGRSSRWGAFLDSTLDRVADGAIFGGLALWYAGGGDDIVLCAVSIFCLASGQVVSYTKARGEAIGLPVAVNGLVERAERLVVSLVAAGFAGLHKFGVPGIQYLLPIALWIVAVGSLVTLVQRVVTVRREAAEADAAAQESQGTEAAK | failed
8 | MVIPFARSVPLSPNTLTLLGFAVSVAAGVAFALGKPFEGGFLILFSGVFDILDGGVARAKGRITPFGGVLDSVCDRYSDGLMFLGIMAGAIYGRLSFAPFLGVEGWLWAGFALIGSFLVSYTRARAESAGCRKLSVGIAERTERMVILALGALSGFLGWALVLIAVFSHITMIQRVLRAKSILSSPSEPESQKP | failed
9 | MEAVVVEREAKGMKEIAIQEKDLTLQWRGNTGKLVKVRLKNTRAMEMWYNKQITEENIQEITTLNIIKNGKSLALEVYPEKSIYVKPNLGRINVPVFFIKTPINRGVFEEIFGETLKA | not failed
10 | MKILSVSYIYLLMGISSYSYANFDLGINEFNAPNELTELSELNTSNDNNAIIELINSTNSQVTIIQHNVNKTGSNKAKVKQTGYDNTAAVMQLGSNNVGLIAQNGTNNLATLKQLGFNHEGAILQEGNDNIAHLVQTGNGKQNVVNQTGDSNIAAAVNKNNGAGFSINQTGNQGIILVNGMDRFISIVN | failed
11 | MNVLALDTSQRIRIGLRKGEDLFEISYTGEKKHAEILPVVVKKLLDELDLKVKDLDVVGVGIGPGGLTGLRVGIATVVGLVSPYDIPVAPLNSFEMTAKSCPADGVVLVARRARKGYHYCAVYLKDKGLNPLKEPSVVSDEELEEITKEFSPKIVLKDDLLISPAVLVEESERLFREKKTIHYYEIEPLYLQKSIAELNWEKKKRG | not failed
12 | MLEVHRTHRAKILNYSQVEDSLNRHGWSASKLWNVANYHSRQVWEETREIPGHEELKNELKGHDKYKGLHSQSSQRVLEELAEAFNSWYSSDDERDNPPGYRKQNYYDQQGRRVHEEHPLSTVTWKQNGIRHDTKNNRVRLSKGANHKEHPKAWEYILVEYETRPGVEVENLQQVRAVYDQTKERWELHLVCKEEIETPDAPGTETAGIDLGISNFAAVAYSTEDADLYPGNRLKQDGYYFPKEIANCDDSSGDRATRLHHKWSERRTHFFHSLAKHIVEKCIERSVGRINVGDLEGIREDENAKSKNWGRHGNLDLHGWAFDRFTSILEYKAKVEGIEVMEVSERDTSKTCCVCGREDDSQRVERGLYVCESCDAAFNADVNGAENIRLDIDEESNSESTGQLSGDRSTGWLAQPGVYLYDLSCGFQPQREVVDSKP | failed
13 | MIKHYLFMAVSQVFFSFFLVLFFISSIVLLISIASVTLVIKVSFLDLVQLFLYSLPGTIFFILPITFFAACALGLSRLSYDHELLVFFSLGVSPKKMTKVFAPLSLLVSAILLVFSLILIPTSKSTYYGFLRQKKDKIDINIRAGEFGQKLGDWLVYVDKTKNNSYDNLVLFSNKSLSQESFILAQKGNINNQNGVFELNLYNGHAYFTQGDKMRKVDFEELHLRNKLKSFNSNDAAYLQGTDYLGYWKKAFGKNANKNQKRRFSQAILVSLFPLASVFLIPLFGIANPRFKTNWSYFYVLGAVGVYFLMVHVISTDLFLMTFFFPFIWAFASYLLFRKFILKRY | failed
14 | MNETEFYAYHIVTRKKMHIGQMIPFNKNQHNTLYHFFFEREQLNANGEDGIQILNNHYKNDELHINNENAKVVISYMDQTIRAARETIVEMVRLQEFPEYPSRLSCLYAAKSYEDALKWKALFDSYNREVLQIVKLRVIGSSFEGDGNLLPKEDGIPFSQKIEQARKYWKGNIRNELPELLINGEIEVVEIIDDFSSIHI | not failed
15 | DVTEQKQAEAELHQRDRLLQAVAEAANWLVVEMNYDTAIEKALAVVGEAAQADRAYLFKNHPHPITGKRAVSLQFEWYGSDLQPSIQDWQNQLYQSTELSRWYSVLSSGKSINELRRKLPVAERELLERQGIQSLLLVPLGLEDQFWGYLGLADCTQERYWSRHEESTLLTMAASISGAWQRQQVEEKIRYQALHDL | not failed
16 | MERLTRWLLVMMAMLLAASGLVWFYNSNHLPVKQVSLKGNLVYSDKKTLGSLAKEYIHGNILRTDINGAQEAYRRYPWIASVMVRRRFPDTVEVVLTERKPVARWGDHALVDGEGNVFEARLDRPGMPVFRGAEGTSAEMLRRYDEFSTVLAKQGLGIKEMTYTARSAWIVVLDNGITVRLGRENEMKRLRLFTEAWQHLLRKNKNRLSYVDMRYKDGFSVRYASDGLPEKESEE | failed
17 | FGKVTSSQQVAQRLLQEMKGLQQEHLICIYLNTKNDIIQQKTIFKGSLNQSIAHPREIFREAVKYSSARILLAHNHPSGNPTPSPQDIQFTKRMEECGEMMGIQLLDHIILGDSGYISLREENFFASE | failed
18 | MMLRFSVITYTFGRLTTKKHNKVMKKLIFLFAFCLTVTNIFAQTDPSQLKKEGSDAFNAKNYPVAYAKFSEYLKQTNNQDSAIAYYCGMAADEVKKYAEAVTFFDIAIQKKFNIGNAYARKALALDAMKKTDEYVATLEEGLKVDPDNKTMIKNYGLHYLKAGIAAQKAGKVEEAEECFKKVIPLDHKTYKTNALYSLGVLCYNDGANILKKAAPLANSDADKYAAEKEKADGRFKEAIGYLEEATKVSPEDTKSKTMLSQVQAAMK | failed
19 | FQDFEYPDYDDYRAEAFLHQQKRMECYSKAKEAYRIGKKNVATFYAQQGTLHEQKMKEANHLAAIEIFEKVNASLLPQNVLDLHGLHVDEALEHLMRVLEKKTEEFKQNGGKPYLSVITGRGNHSQGGVARIKPAVIKYLISHSFRFSEIKPGCLKVMLK | failed
20 | LAYQPGKLLVRGDTPLFKIERLLGIDLDHIEAETLAGLIYETLKRVPEEEEQMEVEGLRIIIKKMKGPKIVLAKVLKLD | not failed
21 | MPKAAWEPEYHRVFVDLCVEQKMLGNQPGTQHILKPFLQRTGARFTRNQLKNHWDTMIKQWKIWCRLVQCSDMQWDPQTNTFGANDQDWANYLHVNPEAGQYRLNPPSFLEKLELIFEDSNLDDEGTSGSKRKRIAKHRDEDNDNTGDEEDTQSASNFSSPQSKGYWSPSSHELFVDLLFQEALKGNRPDSHYPKETWKMILETINQNTGKSFTRPQLKNHWDCTRKSWKIWCQVIGAPVMKWDATSRTFGATDEDWKNYLKENHRAAPFRRKQLPHADKLATIFKGLIEPGKAYFRSYRRRVLDHHSESPQLHDPTPLSTLYTNEPVSGSEGGADEDDNDDDDEQPTPQHRRFNSVGFAESRLQDVEIVTPGCHRLKTELMKESPVSASVRQYEYTIGECIECLDSMEEVEQGSDLYLFALDLFVKKEYREIFLLLKNSSLRMSWLLRLRSGGLTIAA | failed
22 | MTTPRRALIVIDVQNEYVTGDLPIEYPDVQSSLANIARAMDAARAAGVPVVIVQNFAPAGSPLFARGSNGAELHPVVSERARDHYVEKSLPSAFTGTDLAGWLAARQIDTLTVTGYMTHNCDASTINHAVHSGLAVEFLHDATGSVPYENSAGFASAEEIHRVFSVVLQSRFAAVASTDEWIAAVQGGTPLARGNIYASNQKARARRATA | not failed
23 | MRIGGTTSPIASHSFYVATRGYMDKTQSEEKNRRPLAVRDLNFTKRIAVWLSQKQITPNQISLMSIAFALLGCAILAVYHYYPAPLWLILAALSIQARLLCNLFDGMVAVEGGKKTPAGELFNDVPDRIADPLLILGAGFVTTSALGMTLAWLCALLAVLTAYIRVLGVSIGGEADFQGPMAKQHRMALLTLSLLFIAALSLFDELPTFFAYTMDLTLIVMLIGLVLTVWRRLQHIYQFHAARASSSDHQGN | failed
24 | MDDQSGDQMRPELTMPPAEAEALRMAYEEAEVILEYGSGGSTVVAAELPGKHVTSVESDRAWARMMKAWLAANPPAEGTEVNIVWTDIGPTGDWGHPVSDAKWRSYPDYPLAVWRTEGFRHPDVVLVDGRFRVGCALATAFSITRPVTLLFDDYSQRRWQHQVEEFLGAPLMIGRLAAFQVEPQPIPPGSLMQLIRTMTSP | not failed
